From publication PMC3060506 (The Journal of Biological Chemistry, 2010)
Ends that are not written are not given here.

Target: T1, RNASEH2BC heterodimer, purified (human, UniProt Q5TBB1 1-312; Q8TDP1 1-164)
T1 sequence (looked up) 1: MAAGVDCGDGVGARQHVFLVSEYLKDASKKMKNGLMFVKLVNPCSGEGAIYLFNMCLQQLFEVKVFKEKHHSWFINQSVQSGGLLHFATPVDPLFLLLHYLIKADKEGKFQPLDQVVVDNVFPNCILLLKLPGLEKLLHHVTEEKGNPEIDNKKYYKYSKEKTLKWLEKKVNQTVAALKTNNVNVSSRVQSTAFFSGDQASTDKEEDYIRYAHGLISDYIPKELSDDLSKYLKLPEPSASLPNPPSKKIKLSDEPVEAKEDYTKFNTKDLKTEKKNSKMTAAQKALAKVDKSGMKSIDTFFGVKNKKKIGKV
T1 sequence (looked up) 2: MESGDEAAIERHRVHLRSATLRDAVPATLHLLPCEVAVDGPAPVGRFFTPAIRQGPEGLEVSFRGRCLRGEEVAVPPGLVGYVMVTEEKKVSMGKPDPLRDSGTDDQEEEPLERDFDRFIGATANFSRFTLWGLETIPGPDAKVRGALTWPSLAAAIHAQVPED
Assay: fluorescence polarisation

Kd: 123 ± 10 nM
Binder: fluorescein-GSSHRYFLERGLESATSL [fluorescein-labeled peptide RNASEH2A:283–299]
